Experimental data reported in PMC8230831.

Target: CXC chemokine receptor 4 (CXCR4) (human (endogenous in HeLa)) (UniProt P61073)
Conditions: scale: apoptotic figures per 400 x magnification tumor field

UniProt P61073, sequence (P61073 whole entry): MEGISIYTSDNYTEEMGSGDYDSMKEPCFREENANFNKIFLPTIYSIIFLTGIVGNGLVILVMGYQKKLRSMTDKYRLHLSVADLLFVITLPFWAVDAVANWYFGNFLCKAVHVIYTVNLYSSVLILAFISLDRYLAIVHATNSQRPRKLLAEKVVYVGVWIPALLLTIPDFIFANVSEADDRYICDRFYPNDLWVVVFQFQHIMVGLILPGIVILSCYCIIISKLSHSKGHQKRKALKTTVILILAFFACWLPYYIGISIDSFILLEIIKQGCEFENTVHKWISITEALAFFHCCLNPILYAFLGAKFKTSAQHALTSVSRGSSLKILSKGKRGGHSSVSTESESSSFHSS

- apoptotic figures in CXCR4+ M5 colorectal tumors of mice, 0.5 to 24 h after a single 200 µg i.v. dose (histology); peak at 24 h: 30
Substance: biparatopic EPIX4-(RK)-GFP-H6/T22-GFP-H6 NPs (complex)
